Series [1] deals with the molecule itself. Kind of series: SEC-MALS; peak 2 fractions (C7-D4) pooled, 1.3 mg/mL; Superose 6 Increase 10/300 GL in lysis buffer (50 mM HEPES pH 7.5, 150 mM NaCl, 0.5 mM TCEP, 10 mM MgCl2, 1 mM ADP); 0.5 mL/min. Background: SEC sorts molecules by how far they enter the pores of the column.
Series [2] deals with the molecule itself. Kind of series: SEC + other: negative-stain EM; Superose 6 Increase 10/300 GL in 50 mM HEPES pH 7.5, 150 mM NaCl, 0.5 mM TCEP, 10 mM MgCl2, 1 mM ADP; elution against a gel filtration standard; SEC fractions of peak 2 imaged after 2 % uranyl acetate stain.

B1: MBP-NLRP3(Δexon3) (natural protein, human, UniProt Q96P20 3-1036, looked up)
chain: MASTRCKLARYLEDLEDVDLKKFKMHLEDYPPQKGCIPLPRGQTEKADHVDLATLMIDFNGEEKAWAMAVWIFAAINRRDLYEKAKRDEPKWDYRKKYRKYVRSRFQCIEDRNARLGESVSLNKRYTRLRLIKEHRSQQEREQELLAIGKTKTCESPVSPIKMELLFDPDDEHSEPVHTVVFQGAAGIGKTILARKMMLDWASGTLYQDRFDYLFYIHCREVSLVTQRSLGDLIMSCCPDPNPPIHKIVRKPSRILFLMDGFDELQGAFDEHIGPLCTDWQKAERGDILLSSLIRKKLLPEASLLITTRPVALEKLQHLLDHPRHVEILGFSEAKRKEYFFKYFSDEAQARAAFSLIQENEVLFTMCFIPLVCWIVCTGLKQQMESGKSLAQTSKTTTAVYVFFLSSLLQPRGGSQEHGLCAHLWGLCSLAADGIWNQKILFEESDLRNHGLQKADVSAFLRMNLFQKEVDCEKFYSFIHMTFQEFFAAMYYLLEEEKEGRTNVPGSRLKLPSRDVTVLLENYGKFEKGYLIFVVRFLFGLVNQERTSYLEKKLSCKISQQIRLELLKWIEVKAKAKKLQIQPSQLELFYCLYEMQEEDFVQRAMDYFPKIEINLSTRMDHMVSSFCIENCHRVESLSLGFLHNMPKEEEEEEKEGRHLDMVQCVLPSSSHAACSHGLVNSHLTSSFCRGLFSVLSTSQSLTELDLSDNSLGDPGMRVLCETLQHPGCNIRRLWLGRCGLSHECCFDISLVLSSNQKLVELDLSDNALGDFGIRLLCVGLKHLLCNLKKLWLVSCCLTSACCQDLASVLSTSHSLTRLYVGENALGDSGVAILCEKAKNPQCNLQKLGLVNSGLTSVCCSALSSVLSTNQNLTHLYLRGNTLGDKGIKLLCEGLLHPDCKLQVLELDNCNLTSHCCWDLSTLLTSSQSLRKLSLGNNDLGDLGVMMFCEVLKQQSCLLQNLGLSEMYFNYETKSALETLQEEKPELTVVFEPSW
notes: NLRP3, human, UniProt Q96P20, residues 3-1036 with the linker region encoded by exon 3 (residues 95-134) deleted; a TEV site stands between MBP and NLRP3; Calculated mass of the MBP-NLRP3(Δexon3) monomer is printed as 154.8 kDa; also called MBP-NLRP3 (∆95-134); source: baculovirus-infected Sf9 insect cells, purified (MBP-trap, SEC on Superose 6 Increase); not shown: MBP, N-terminal, kept
What is called stoichiometry N is the number of molecules, sites or subunits per partner or assembly. Consider B1, for which the “stoichiometry N” value in series [1] amounted to 2.

B2: MBP-NLRP3(Δexon3) + GSGAGG linker (natural protein, human)
chain: MASTRCKLARYLEDLEDVDLKKFKMHLEDYPPQKGCIPLPRGQTEKADHVDLATLMIDFNGEEKAWAMAVWIFAAINRRDLYEKAKRDEPKWGSGAGGDYRKKYRKYVRSRFQCIEDRNARLGESVSLNKRYTRLRLIKEHRSQQEREQELLAIGKTKTCESPVSPIKMELLFDPDDEHSEPVHTVVFQGAAGIGKTILARKMMLDWASGTLYQDRFDYLFYIHCREVSLVTQRSLGDLIMSCCPDPNPPIHKIVRKPSRILFLMDGFDELQGAFDEHIGPLCTDWQKAERGDILLSSLIRKKLLPEASLLITTRPVALEKLQHLLDHPRHVEILGFSEAKRKEYFFKYFSDEAQARAAFSLIQENEVLFTMCFIPLVCWIVCTGLKQQMESGKSLAQTSKTTTAVYVFFLSSLLQPRGGSQEHGLCAHLWGLCSLAADGIWNQKILFEESDLRNHGLQKADVSAFLRMNLFQKEVDCEKFYSFIHMTFQEFFAAMYYLLEEEKEGRTNVPGSRLKLPSRDVTVLLENYGKFEKGYLIFVVRFLFGLVNQERTSYLEKKLSCKISQQIRLELLKWIEVKAKAKKLQIQPSQLELFYCLYEMQEEDFVQRAMDYFPKIEINLSTRMDHMVSSFCIENCHRVESLSLGFLHNMPKEEEEEEKEGRHLDMVQCVLPSSSHAACSHGLVNSHLTSSFCRGLFSVLSTSQSLTELDLSDNSLGDPGMRVLCETLQHPGCNIRRLWLGRCGLSHECCFDISLVLSSNQKLVELDLSDNALGDFGIRLLCVGLKHLLCNLKKLWLVSCCLTSACCQDLASVLSTSHSLTRLYVGENALGDSGVAILCEKAKNPQCNLQKLGLVNSGLTSVCCSALSSVLSTNQNLTHLYLRGNTLGDKGIKLLCEGLLHPDCKLQVLELDNCNLTSHCCWDLSTLLTSSQSLRKLSLGNNDLGDLGVMMFCEVLKQQSCLLQNLGLSEMYFNYETKSALETLQEEKPELTVVFEPSW
notes: NLRP3, human, UniProt Q96P20, residues 3-94 (before the deleted exon 3 linker 95-134); short flexible linker that replaces residues 95-134; NLRP3, human, UniProt Q96P20, residues 135-1036 (after the deleted exon 3 linker 95-134); also called ∆95-134 + linker (GSGAGG); source: baculovirus-infected Sf9 insect cells, purified (MBP-trap, SEC on Superose 6 Increase); not shown: MBP, N-terminal, kept
On to B2, for which the binding result in series [2] is listed as “binds”.

(Values after paper PMC13226650, “Non-decameric NLRP3 reveals a TGN/MTOC-distal pathway of inflammasome activation” (Nature Communications, 2026).)
